Experiment: soluble on expression in E. coli; label from the status in PepcDB or PDB records

Sequence | soluble on expression in E. coli
MHFVKKVPTTEEEKAAKQKEHTKRSQQFLHVRDKIVAKREKGEYDDEILSLTQAILEKNADIYTFWNIRRTTIELRMEANEKVQQSADAEEEEKTKSSQKIENLLAGELFLSYECIKSNPKSYSAWYQRAWALQRQSAPDFKKELALCEKALQLDCRNFHCWDHRRIVARMAKRSEAEELEFSNKLINDNFSNYSAWHYRSIALKNIHRDEKTGAPKIDDELIASELQKVKNAFFMDAEDQSAWTYTRWLLEVGSGKEFLRPESHTPIELISASFHGNNTTLVFSRAVTIQFLLTFVDTENTTGWRAFSSTSPNPTSSRVWQYLSDTPLRVVTSNPTDLENISWTELNEQPYVNLDRLKTIYDVVEVPQPAYIGELLEDCKQLIELEPKNKWPLYMRTLVLLEYQPIKSYEEIIKNLENLSENLDPKRSELYKSLISRQNLNFSIREQFERILGPDTDWLTCRYSKLTSLEGVEYLAGFVGSADFSGNRLKEIQRIVLPNLKSLTINENPIESLPPSPCLSHLTFFSIAGTQIASVSAVMPFFQTIPSLDRLVFCETPLVEKTEELRAQLPGVRLIPHWL | soluble
MKMIQFWFDFASTYSYPAAMQIRQLKDEYRFSLHPFLLGGIFQKQGLNDSPFNAYPVKGQYMWRDLERICQKLDLKFHRPVLFPQNGLLAARIACQYASAPWIFDFICSVYQANFVQNLDIGQPETISQILQNMQLDCNDIIMTSTTDTAKQTLKQNGMIAESLHIFGAPSFVVENELFWGQDRLQDAIDWSQR | not soluble
MRNETLVSIIVPVYNSAQYLRKCIDSILAQSYTEFELLLINDGSEDHSGLICDDYAQSDNRIQVFHQENAGVSAARNLGLEKHTGEHFLFIDSDDYIQERYLEELMKYASCDFVQCSCCSEPVGNDYLFVDGNFEGSDEIKQCLLKYIYPEFTVPFGRLYKSSIQRKNKLFFDTYLYSGEDTLWVSQYLLCVHSLRVSSYIGYIYVHHVGEHLSQKSISYEHLEYTLHKLLISYSDLEKRYDFDLTGVRYSVIIYFFHRYIVYIANRNYTEIRKELEKSCANPLIKGVFYDKKYLLKGKKMKLFNWLVLHDMYSVLALYVKRWKRYL | not soluble
MGSDKIHHHHHHMIKKSDYPRYIQMLKRRPEFSGFTPDEFNQLEQQMRIKEYPKGQLLFDQADTRSRFYFVISGLLRSERIDETGDFSFYSFIAENKGFPYRGLFHDHEYAYAVNTMTPAVVASFPMAEFENLLTRNSEMMKRVVVEMGQIINENEDQLQQMVTSSASDRVRNALKILGRKLGNQLAGDRWFVPYAITLIELAKMAGTTRETASQVVQRLEADGQIIYEHKHFTIFIK | not soluble
MIDTLKNIKVKDVMTKNVITAKRHEGVVEAFEKMLKYKISSLPVIDDENKVIGIVTTTDIGYNLIRDKYTLETTIGDVMTKDVITIHEDASILEAIKKMDISGKKEEIINQLPVVDKNNKLVGIISDGDIIRTISKII | soluble
MAHHHHHHMAVENMLGKLKQNPGDYYNSVSALFFHRPYNMMPIQAMSFLYVRGLARATSAEHKKYFEELCSKAKVEPAAVQTELDVIPDYFGMIESGQEPKDVFGATNKVAKAVRADKDFSSLLSRKMSLGSSAMANFGNLYTASLPCWIAAGLEEAYNKKQDITNHPMVMVGYGSGDASEAIPIVPVKGWEEAASKINVAAALEKPVNLTREQYEGMHNGSLKSDLAAGNRQKEFVVAHIGSRNDMAFQDIGIEYYQFVH | not soluble
MGSDKIHHHHHHMELNEFLDKAYAVLRRLDAVLPPEPGHTDWNALAFRWQSAGKKGFLEHLPDPHTFPLARLAGVGRQTELLVRNTEQFIAGRPANNVLMSGARGTGKSSLVKALLHEYADKGLRLIEVDKSDLIGLPYLLTLLKERPEKFIVFCDDLSFESGDETYKALKTALDGGLSQRCANVLVYATSNRRHLMPEYFDENAGTTGMRGEIHQKEAVEEKISLSDRFGLWLSFYPFDQNDYLAAVQNWLEDFGVPYDETAQMAALQWAQTRGSRSGRSAWQFACDWAGRLPKQRAL | not soluble
MSVLQKIADIEAEMARTQKNKATNAHLGILKAKLAKLRRDLITPKGGGGGPGEGFDVAKTGDARIGFVGFPSVGKSTLLCNLAGVFSEVAAYEFTTLTTVPGVIRYKGAKIQLLDLPGIIEGAKDGKGRGKQVIAVARTCSLILMVLDVMKPLQHKKLLEYELEGFGIRLNKQPPNIGYKRKEKGGINLTMLVPQSELDLDLVKSILAEYRIHNADITLRYDATSEDLIDVIEGNRIYIPCIYVLNKIDQISIEELDIIYRIPHTVPISAHHKWNFDDLLEKVWEYLNLIRIYTKPKGQLPDYSQPIVLNAERKSIEDLCTKIHKSLQKDFKCALVWGASAKHNPQRVGRDHVLIDEDVVQVIKKV | not soluble
MGSDKIHHHHHHMSESCILFFVKYPEPGKVKTRLGEVVGNDKAAMLYRHFVQDMLQGLARLHADLHICYVPGDADLPEKFKAWLGPQHMFAAQQGLDLGERMKHAMQKAFDDGYDRVVLMGSDIPDYPCELVQKALNDLQHYDAAIGPAFDGGYYLIGFRKDSFCPDVFDGIRWGEADVYQPTVEKMRRARLEVLQLPDWNDVDTVWDLNVLYRTNKNSSFRRSSTYALLRENDALIRQYDIDLPGMAPVEKE | not soluble
MGSDKIHHHHHHMVSMTKLVELKNSEASAVVLPRHGAGLASFDFLWRGSRLPAFRPLITEPQHEHDLALYLLAPFSNRIGGGGFAWNGRRHDLRPNVEGEPCPLHGDAWQQHWTVMDQGRTHVTLQLLSRSIPPFAYDAEITWTLDGPSLSGALTLIHRGEDPMPYGGGFHPWLVRDSDTQLHARADGWWSEDSLHLPKRWHALVDNDSSGFGAPRSLPSNFFNTVYTGWHGRADIWWPGRGLALQIEAQAPLNRYIVYSPGAEADFFCFEPVSHDVNAHNAPSPLKHGLVELAEGESLHLSARFTATLR | not soluble
MTNRLILFDFDETYYKHRTNQADIPYLKEMKSLLQNITAKNNVITAILTGSTIESVLQKMSKVNMSYKPQHIFSDLSSKMFTWNNCEYIESDEYKNEVLIEPFLLEDILDILKHVSSKHKVEFIPQRIFRENETLYNFYFYSSGDTHLDKTILEDLSQYSKTRDYTMTFNRCNPLAGDPENAYDINFTPKNAGKLYATKILMNKYGVPKELIIGFGDSGNDEAFLSYLDHAMIMSNSQDEEMKSKFKNTKYPYYKGIYTHVREFIEYENV | not soluble
VCEKGFEAGDNKLGGALNAKHVEKYGDNFKNGMHKPEFHEDGLHKPMEVGGKKFESGFHYLLECHELGGKNASGGYGGPLCEDPYGSEVQAMTEKLLKEADSDRTLCFNNFQDPCPQLTKEQVAMCKGFDYGDKTLKLPCGPLPWPAGLPEPGYVPKTNPLHGRWITVSGGQAAFIKEAIKSGMLGAAEANKIVADTDHHQTGGMYLRINQFGDVCTVDASVAKFARAKRTWKSGHYFYEPLVSGGNLLGVWVLPEEYRKIGFFWEMESGRCFRIERRAFPVGPYTFMRQATEVGGKISFVFYVKVSNDPESDPIPLQSRDYTALAGRDNAPTNLGKPYPTLAKDLDYPKKRDGWLEKNEKEMLRQRNIVSSTF | soluble
GSHMDLETLRARREAVLSLCARHGAVRVRVFGSVARGEAREDSDLDLLVAFEEGRTLLDHARLKLALEGLLGVRVDIVSERGLAPRLREQVLREAIPL | soluble
GISYSVEADPDTTAKAMLRERQMSFKHSKAIAREIKGKTAGEAVDYLEAVIEGDQPVPFKQHNSGVGHKSKVDGWDAGRYPEKASKAFLDLLENAVGNADHQGFDGEAMTIKHVAAHKVGEQQGRKPRAMGRASAWNSPQVDVELILEEPEVED | soluble
MGSDKIHHHHHHMEKILLVDDEQFVLDGLKRQLRRKYAIHTADGGEKGLQLIQSDGPFAVVVSDMRMPEMNGIEFLTQVRRVAPDSIRIMLTGYADQKTAINAINEGAIFRFLTKPCSLENLTVALDAALDQYRLITAEKELLEKTLKGSIKVLVDILSLSAPAAFSQATRLRKYAAQIVARLEFPDSWQYEIAALLSSIGFVNIPPETITKHLIGEKLTGREQEMIDAVPETAGMLLANIPRLSAVALMINRQNTPCSEPTAFKNGDFHEAVRIGANLLKVLTDFDILLIRNYEPEEAIRIMSERIGLYDRTLLNMLAILDLPRRDQGVRNIRIDDLREGMIIDADIRNTHGILVVPKGYEVNESTCQRLKNFLIRQTGAETVRVLMPVYAEEESQ | not soluble
MAHHHHHHMKTFRYLTITGDTITLRRGARHVMHLLLTLERAPYDTRLNLEFVSLAHMRQLNYKYKGLDRPTDVLTFAPAGEADSFVNDLLFGDFLERGDGDKGTGATLTASPTCAAAVGAGPNALTQSIIRGELVDLGNIFVSLDYMRLRCRRYPSTTLPLAPYLHAALVHATLHALGYDHTSRALLQQMARREQQLGRQLAMIARQHPRCLPPLNIWDSM | not soluble
MGSDKIHHHHHHMILKFVIRMGLTISEKIEEIMSSNESNTTLYNISSLEHLHAIFRAYRPHNGFGVVYRGQADCHWKLLPKAGRQEYLLPDDRDLGVFKDWLDRAIAYENVPNYFIEQLALAQHHGLATRLLDWTINPLIACYFACCSYPDKDGVIYILELPKTFATVDLSMETLKECSEVISYRPRQFSPRILNQGGIFTIHNPPDTTIDIGPGRIALDMPNLVQIILGKNLKHDILEMLSDYGIDERYIYPDLDGLSRSLNHSMMRMVRQRVERIDL | not soluble
MSLENLNIENWPVDRLHHSEHATRRNEDAIPRMVDALRMFGFRIPLLVTGAGEVVDGHLRLKAALVMGMASVPVIVVDDMTPTQVRTFRLLINRSATWAEWDDEALRVELASLRDYGVDVTMTGFADAELDAFLQGVSLAGESDPDMVPPLPETPTSRPGDVWNMGGHRLLCGDSTSVEDVVRLMAGEQADMLWTDPPYNVDYSGKAGKIRNDKMSPEDFDAFLLRLLSRSYEALADGAAAYVAHSEAGGGTAFRKAFAHAGYKLASCLIWRKHQLVLGRGDYHWQHEPILYGWKPTGKHRWYGNRKHTTLLEHFAGQTVLPAGEGVWQVATGDAVLLIRGQDVTVEEVSTSILAVAKPARSELHPTMKPVALVERMVANSSPRGGLVLDPCGGSGTTLIACERMGRRCNTMELDPRFADVIVRRWEEVTGKTAVLEGGASFADVPLAREVAHEGHHHHHH | soluble
MGSDKIHHHHHHMRDYSPYPLLVDVCVTNRCNLSCSYCSAEAGPFASKKGEMSVEKLDSIFRELNLMGVPRVGVTGGEPFIRDDILDILKAFDKYHFAKVLNTNGNLITDSVAKELSKLHLDRICVTVDGSCSKVHDSQRGKGSFKKAIEGIKNLQRYNLPVSTLFTLGRHNVDDLINTIRLNDMLRIKYMSVMIICPTGRANNGSILADKKHWYPVFLDLTERLSRGEFKVKFKIVPPNESDVFWTHYFPLAFYNRLDLLESVWHQSLNFNSNKKREISCQAGVRACSINHKGDVYGCDLMNGIDELVAGNVKEKSFYEIWHNSSIFHKLRNITFDDISGKCAGCPLPWCGGGCRCSALELDGTLLGSDLACFYDEEESVLV | not soluble
MSLAKDKDTLDFIRNLCQKRHVCIQSSLAKVSSKKVNEKDVDKFLLYQHFSCNIRNIHHHQILAINRGENLKVLTVKVNISDGVKDEFCRWCIQNRWRPRSFARPELMKILYNSLNDSFKRLIYPLLCREFRAKLTSDAEKESVMMFGRNLRQLLLTSPVPGRTLMGVDPGYKHGCKLAIISPTSQILHTDVVYLHCGQGFREAEKIKTLLLNFNCSTVVIGNGTACRETEAYFADLIMKNYFAPLDVVYCIVSEAGASIYSVSPEANKEMPGLDPNLRSAVSIARRVQDPLAELVKIEPKHIGVGMYQHDVSQTLLKATLDSVVEECVSFVGVDINICSEVLLRHIAGLNANRAKNIIEWREKNGPFINREQLKKVKGLGPKSFQQCAGFIRINQDYIRTFCSQQTETSGQIQGVAVTSSADVEVTNEKQGKKKSKTAVNVLLKPNPLDQTCIHPESYDIAMRFLSSIGGTLYEVGKPEMQQKINSFLEKEGMEKIAERLQTTVHTLQVIIDGLSQPESFDFRTDFDKPDFKRSIVCLEDLQIGTVLTGKVENATLFGIFVDIGVGKSGLIPIRNVTEAKLSKTKKRRSLGLGPGERVEVQVLNIDIPRSRITLDLIRVLEGHHHHHH | soluble
